Patent US20160159910A1 (Genentech, published 2016)

T1: human B7-H4 (human, UniProt Q7Z7D3 29-282)
T1 construct: On stably transfected 293 cells (recombinant) or on MX-1 / SKBR3 tumor cells (endogenous); the cell is named under assay; also called huB7-H4; hB7-H4
T1 sequence: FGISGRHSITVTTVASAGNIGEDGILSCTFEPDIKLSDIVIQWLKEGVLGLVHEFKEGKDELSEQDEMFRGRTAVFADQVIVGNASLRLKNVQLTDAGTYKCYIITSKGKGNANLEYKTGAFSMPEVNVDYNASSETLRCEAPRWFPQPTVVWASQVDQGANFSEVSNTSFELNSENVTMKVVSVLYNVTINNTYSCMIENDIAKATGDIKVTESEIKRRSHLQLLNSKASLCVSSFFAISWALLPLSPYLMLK

T2: mouse B7-H4 (mouse, UniProt Q7TSP5 29-283)
T2 construct: On stably transfected 293 cells; also called muB7-H4; recombinant mouse B7-H4
T2 sequence: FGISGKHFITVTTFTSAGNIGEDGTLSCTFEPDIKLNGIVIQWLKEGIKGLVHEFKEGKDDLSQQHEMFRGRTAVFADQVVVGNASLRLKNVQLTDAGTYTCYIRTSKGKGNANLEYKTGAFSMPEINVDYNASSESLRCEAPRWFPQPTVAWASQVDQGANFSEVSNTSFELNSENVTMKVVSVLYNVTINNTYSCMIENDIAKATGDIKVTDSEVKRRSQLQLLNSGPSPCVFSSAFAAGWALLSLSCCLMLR

T3: cynomolgus monkey B7-H4 (cynomolgus monkey, UniProt Q7Z7D3 29-282 (human entry))
T3 construct: On stably transfected 293 cells; also called cyno B7-H4; recombinant cynomolgus monkey B7-H4
T3 chain: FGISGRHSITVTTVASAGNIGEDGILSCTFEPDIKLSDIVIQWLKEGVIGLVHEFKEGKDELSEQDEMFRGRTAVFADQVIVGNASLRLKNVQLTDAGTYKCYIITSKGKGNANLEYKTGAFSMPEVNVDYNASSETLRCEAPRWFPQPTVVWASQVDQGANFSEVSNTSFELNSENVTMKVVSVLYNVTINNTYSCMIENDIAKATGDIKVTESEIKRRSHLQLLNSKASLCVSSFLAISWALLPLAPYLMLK


Legend:
[1] = target: T1, human B7-H4; assay: Scatchard analysis, 125I-antibody radioligand cell binding on MX-1 tumor cells
Description: (§1) Competition assay mixtures of 50 μL volume containing a fixed concentration of [I¹²⁵] labeled antibody and decreasing concentrations of serially diluted, unlabeled antibody were placed into 96-well plates. […] Cells were detached from the flask using Sigma Cell Dissociation Solution and were washed with binding buffer, which consisted of Dulbecco's Modified Eagle Medium (DMEM) with 1% bovine serum albumin (BSA), […] and 0.1% sodium azide. The washed cells were added to the 96 well plates at a density of 100,000 cells in 0.2 mL of binding buffer. The final concentration of the [I¹²⁵] labeled antibody in each well was ˜250 pM. The final concentration of the unlabeled antibody in the competition assay ranged from 1000 nM through ten 2-fold dilution steps to a 0 nM buffer-only assay. Competition assays were carried out in triplicate. Competition assays were incubated for 2 hours at room temperature. After the 2-hour incubation, the competition assays were transferred to a Millipore Multiscreen filter plate (Billerica, Mass.) and washed 4 times with binding buffer to separate the free from bound [I¹²⁵] labeled antibody. The filters were counted on a Wallac Wizard 1470 gamma counter (PerkinElmer Life and Analytical Sciences Inc.; Wellesley, Mass.). The binding data was evaluated using NewLigand software (Genentech), which uses the fitting algorithm of Munson and Robard to determine the binding affinity of the antibody (Munson and Robard 1980).

[2] = target: T1, human B7-H4; assay: Scatchard analysis on MX-1 cells; the table puts the affinity of 8.3 nM beside the parent antibody's 7.8 nM
Description: as §1, with “After the 2-hour incubation, the competition assays were transferred to a Millipore Multiscreen filter plate (Billerica, Mass.) and washed 4 times with binding buffer to separate the free from bound [I¹²⁵] labeled antibody.” left out

[3] = target: T2, mouse B7-H4; assay: FACS titration on 293 cells expressing recombinant mouse B7-H4 (panel '293-mouse B7-H4', lower block), geometric mean fluorescence
Description: (§2) The fluorescent signal was acquired with a BD FACS Calibur and EC₅₀ values were determined with the Graph Pad program Prism 4.

[4] = target: T1, human B7-H4; assay: FACS titration on MX-1 tumor cells, endogenous human B7-H4 (panel 'MX-1 tumor cell line', lower block), geometric mean fluorescence
Description: as §2

[5] = target: T3, cynomolgus monkey B7-H4; assay: FACS titration on 293 cells expressing recombinant cynomolgus B7-H4 (panel '293-cyno B7-H4', lower block), geometric mean fluorescence
Description: as §2

[6] = target: T1, human B7-H4; assay: FACS titration on 293 cells expressing recombinant human B7-H4 (panel '293-human B7-H4', lower block), Dylight-650 goat anti-human IgG, geometric mean fluorescence
Description: as §2

[7] = target: T1, human B7-H4; assay: Scatchard analysis on MX-1 cells; the table puts the affinity of 8.7 nM beside the parent antibody's 7.8 nM
Description: as §1, with “After the 2-hour incubation, the competition assays were transferred to a Millipore Multiscreen filter plate (Billerica, Mass.) and washed 4 times with binding buffer to separate the free from bound [I¹²⁵] labeled antibody.” left out

Kd [1] [nM] | Fold to Parent mAb [2] | EC50 [3] [µg/mL] | EC50 [4] [µg/mL] | EC50 [5] [µg/mL] | EC50 [6] [µg/mL] | Fold to Parent mAb [7] | Binder
8.3 | 0.94 | 0.45 | 0.34 | 0.68 | 0.66 | – | humanized 1D11.v1.7 (antibody, V domains shown, also called hu1D11.v1.7; h1D11.v1.7) VH: EVQLVQSGAEVKKPGASVKVSCKASGYTFTSYWIGWVRQAPGQGLEWIGDIYPGGGYTNYNEKFKGRATLTRDTSTSTAYLELSSLRSEDTAVYYCARLDGSSYRGAMDSWGQGTLVTVSS VL: DIQMTQSPSSLSASVGDRVTITCKASQGFNKYVAWYQQKPGKAPKLLIYYTSTLQPGVPSRFSGSGSGRDYTLTISSLQPEDFATYYCLQYGNLLYAFGQGTKVEIKR
8.7 | – | 1.32 | 0.53 | 0.18 | 2.29 | 0.89 | humanized 1D11.v1.8 (antibody, V domains shown, also called hu1D11.v1.8; h1D11.v1.8) VH: EVQLVQSGAEVKKPGASVKVSCKASGYTFTSYWIGWVRQAPGQGLEWIGDIYPGGGYTNYNEKFKGRATITRDTSTSTAYLELSSLRSEDTAVYYCARLDGSSYRGAMDSWGQGTLVTVSS VL: DIQMTQSPSSLSASVGDRVTITCKASQGFNKYVAWYQQKPGKAPKLLIYYTSTLQPGVPSRFSGSGSGRDYTLTISSLQPEDFATYYCLQYGNLLYAFGQGTKVEIKR
